6 molecules from patent US20130236458A1 (AbbVie / Abbott, published 2013) can be followed below.

One may read the Kd as the equilibrium constant for the complex coming apart. For orientation: koff means the rate constant with which the complex falls apart. In general, kon refers to the second-order rate constant of association.

Test [1] concerns the target T1, Recombinant Human IL-13 (human, UniProt P35225 35-146, limits assumed).
T1 construct: bought reagent
In words: SPR (Biacore). A digest of the protocol:
(§1)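 Antibodies or DVD-Ig captured on anti-mouse IgG (Fcγ) CM5 surface; antigen injected at 10–200 nM in HBS-EP, pH 7.4, 25 °C, 25 µL/min. kon and koff from global 1:1 Langmuir fit; KD = koff/kon.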

The target in test [2] is T2, Recombinant Human IL-17 (human, UniProt Q16552 20-155, limits assumed).
T2 construct: bought reagent; also called IL-17A
T2 sequence (looked up): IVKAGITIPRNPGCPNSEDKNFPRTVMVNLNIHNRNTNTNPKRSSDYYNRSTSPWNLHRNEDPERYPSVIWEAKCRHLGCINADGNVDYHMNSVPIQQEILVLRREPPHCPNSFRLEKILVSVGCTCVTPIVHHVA
The experiment in a line: SPR (Biacore). A digest of the protocol:
as §1

The target of test [3] is T1, Recombinant Human IL-13. In words: cell-based or functional assay.
In test [4] the target is T2, Recombinant Human IL-17. The experiment in a line: cell-based or functional assay.

T1 sequence (P35225 35-146 limits assumed): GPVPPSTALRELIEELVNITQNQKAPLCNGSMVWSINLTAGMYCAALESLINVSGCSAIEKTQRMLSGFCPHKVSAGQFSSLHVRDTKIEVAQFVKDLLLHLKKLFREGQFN

B1: DVD2166 (bispecific antibody)
VH: EVQLVQSGAEVKKPGASVKVSCKASGYTFTTYGVSWVRQAPGQGLEWMGEIYPGNYNTYYNEKFRGRVTMTTDTSTSTAYMELRSLRSDDTAVYYCARWRTSYFSDYGYFDYWGQGTTVTVSSASTKGPEVQLVQSGAEVKKPGSSVKVSCKASGYTFTDYEIHWVRQAPGQGLEWMGVNDPESGGTFYNQKFDGRVTLTADESTSTAYMELSSLRSEDTAVYYCTRYSKWDSFDGMDYWGQGTTVTVSS
VL: DVVMTQSPLSLPVTLGQPASISCRSSQSLVHSHGNTYLHWYQQRPGQSPRLLIYTVSNRFSGVPDRFSGSGSGTDFTLKISRVEAEDVGVYYCSQSTHVPYTFGGGTKVEIKRTVAAPDIQMTQSPSSLSASVGDRVTITCRASSGIISYIDWFQQKPGKAPKRLIYATFDLASGVPSRFSGSGSGTDYTLTISSLQPEDFATYYCRQVGSYPETFGQGTKLEIKR
notes: DVD-Ig; also called DVD2166H; DVD2166L
In the case of B1, in test [1], the dissociation constant Kd is 0.034 nM, the koff was determined as 2.6e-05 s⁻¹ and the association rate constant (kon) came to 760000 M⁻¹ s⁻¹. Also, in test [2], the Kd is 0.075 nM, the koff was found to be 9.4e-06 s⁻¹ and the association rate constant (kon) was 130000 M⁻¹ s⁻¹. Further, the “N-Terminal VD IL13 Neutralization Assay IC50” value in test [3] turned out to be 0.089 nM. Further, the “C-Terminal VD IL17 Neutralization Assay IC50” value in test [4] came to 0.0164 nM.

B2: DVD2168 (bispecific antibody)
VH: EVQLVQSGAEVKKPGASVKVSCKASGYTFTTYGVSWVRQAPGQGLEWMGEIYPGNYNTYYNEKFRGRVTMTTDTSTSTAYMELRSLRSDDTAVYYCARWRTSYFSDYGYFDYWGQGTTVTVSSASTKGPEVQLVQSGAEVKKPGSSVKVSCKASGYTFTDYEIHWVRQAPGQGLEWMGVNDPESGGTFYNQKFDGRVTLTADESTSTAYMELSSLRSEDTAVYYCTRYSKWDSFDGMDYWGQGTTVTVSS
VL: DVVMTQSPLSLPVTLGQPASISCRSSQSLVHSHGNTYLHWYQQRPGQSPRLLIYTVSNRFSGVPDRFSGSGSGTDFTLKISRVEAEDVGVYYCSQSTHVPYTFGGGTKVEIKRTVAAPSVFIFPPDIQMTQSPSSLSASVGDRVTITCRASSGIISYIDWFQQKPGKAPKRLIYATFDLASGVPSRFSGSGSGTDYTLTISSLQPEDFATYYCRQVGSYPETFGQGTKLEIKR
notes: DVD-Ig; also called DVD2168H; DVD2168L
Regarding B2, in test [1], the Kd worked out at 0.054 nM, the dissociation rate constant (koff) amounted to 3.7e-05 s⁻¹ and the kon is 680000 M⁻¹ s⁻¹. In test [2], the equilibrium dissociation constant (Kd) was under 0.0025 nM, the koff is under 1e-06 s⁻¹ and the kon was 400000 M⁻¹ s⁻¹. Besides, the “N-Terminal VD IL13 Neutralization Assay IC50” value in test [3] was determined as 0.119 nM. Further, the “C-Terminal VD IL17 Neutralization Assay IC50” value in test [4] came to 0.0025 nM.

B3: DVD2173 (bispecific antibody)
VH: EVQLVQSGAEVKKPGSSVKVSCKASGGSFGGYGIGWVRQAPGQGLEWMGGITPFFGFADYAQKFQGRVTITADESTTTAYMELSGLTSDDTAVYYCARDPNEFWNGYYSTHDFDSWGQGTTVTVSSASTKGPEVQLVQSGAEVKKPGASVKVSCKASGYTFTTYGVSWVRQAPGQGLEWMGEIYPGNYNTYYNEKFRGRVTMTTDTSTSTAYMELRSLRSDDTAVYYCARWRTSYFSDYGYFDYWGQGTTVTVSS
VL: EIVLTQSPDFQSVTPKEKVTITCRASQDIGSELHWYQQKPDQPPKLLIKYASHSTSGVPSRFSGSGSGTDFTLTINGLEAEDAGTYYCHQTDSLPYTFGPGTKVDIKRTVAAPDVVMTQSPLSLPVTLGQPASISCRSSQSLVHSHGNTYLHWYQQRPGQSPRLLIYTVSNRFSGVPDRFSGSGSGTDFTLKISRVEAEDVGVYYCSQSTHVPYTFGGGTKVEIKR
notes: DVD-Ig; also called DVD2173H; DVD2173L
As to B3, in test [1], the equilibrium dissociation constant (Kd) stood at 0.12 nM, the off-rate (koff) is 3.7e-05 s⁻¹ and the association rate constant (kon) came out at 310000 M⁻¹ s⁻¹. In test [2], the equilibrium dissociation constant (Kd) was determined as 0.0036 nM, the koff came out at 9e-06 s⁻¹ and the kon was determined as 2.5e+06 M⁻¹ s⁻¹. Besides, the “C-Terminal VD IL13 Neutralization Assay IC50” value in test [3] came to 2.14 nM. Further, the “N-Terminal VD IL17 Neutralization Assay IC50” value in test [4] was 8 pM.

B4: DVD2167 (bispecific antibody)
VH: EVQLVQSGAEVKKPGSSVKVSCKASGYTFTDYEIHWVRQAPGQGLEWMGVNDPESGGTFYNQKFDGRVTLTADESTSTAYMELSSLRSEDTAVYYCTRYSKWDSFDGMDYWGQGTTVTVSSASTKGPEVQLVQSGAEVKKPGASVKVSCKASGYTFTTYGVSWVRQAPGQGLEWMGEIYPGNYNTYYNEKFRGRVTMTTDTSTSTAYMELRSLRSDDTAVYYCARWRTSYFSDYGYFDYWGQGTTVTVSS
VL: DIQMTQSPSSLSASVGDRVTITCRASSGIISYIDWFQQKPGKAPKRLIYATFDLASGVPSRFSGSGSGTDYTLTISSLQPEDFATYYCRQVGSYPETFGQGTKLEIKRTVAAPDVVMTQSPLSLPVTLGQPASISCRSSQSLVHSHGNTYLHWYQQRPGQSPRLLIYTVSNRFSGVPDRFSGSGSGTDFTLKISRVEAEDVGVYYCSQSTHVPYTFGGGTKVEIKR
notes: DVD-Ig; also called DVD2167H; DVD2167L
For the molecule B4, in test [1], the equilibrium dissociation constant (Kd) is under 0.048 nM, the koff is under 1e-06 s⁻¹ and the kon was 21000 M⁻¹ s⁻¹. In test [2], the Kd was under 0.00037 nM, the koff is under 1e-06 s⁻¹ and the kon worked out at 2.7e+06 M⁻¹ s⁻¹. For the same molecule, in test [3], the “C-Terminal VD IL13 Neutralization Assay IC50” value is 1.7 nM. Also, in test [4], the “N-Terminal VD IL17 Neutralization Assay IC50” value amounted to 2.9 pM.

B5: DVD2171 (bispecific antibody)
VH: EVQLVQSGAEVKKPGSSVKVSCKASGYTFTDYEIHWVRQAPGQGLEWMGVNDPESGGTFYNQKFDGRVTLTADESTSTAYMELSSLRSEDTAVYYCTRYSKWDSFDGMDYWGQGTTVTVSSASTKGPSVFPLAPEVQLVQSGAEVKKPGASVKVSCKASGYTFTTYGVSWVRQAPGQGLEWMGEIYPGNYNTYYNEKFRGRVTMTTDTSTSTAYMELRSLRSDDTAVYYCARWRTSYFSDYGYFDYWGQGTTVTVSS
VL: DIQMTQSPSSLSASVGDRVTITCRASSGIISYIDWFQQKPGKAPKRLIYATFDLASGVPSRFSGSGSGTDYTLTISSLQPEDFATYYCRQVGSYPETFGQGTKLEIKRTVAAPDVVMTQSPLSLPVTLGQPASISCRSSQSLVHSHGNTYLHWYQQRPGQSPRLLIYTVSNRFSGVPDRFSGSGSGTDFTLKISRVEAEDVGVYYCSQSTHVPYTFGGGTKVEIKR
notes: DVD-Ig; also called DVD2171H; DVD2171L
For the molecule B5, in test [1], the Kd is under 0.005 nM, the off-rate constant (koff) is under 1e-06 s⁻¹ and the on-rate constant (kon) was determined as 200000 M⁻¹ s⁻¹. Moreover, in test [2], the equilibrium dissociation constant (Kd) was 0.011 nM, the koff was found to be 2.1e-05 s⁻¹ and the on-rate (kon) worked out at 1.9e+06 M⁻¹ s⁻¹. Besides, the “C-Terminal VD IL13 Neutralization Assay IC50” value in test [3] was 0.506 nM. For the same molecule, the “N-Terminal VD IL17 Neutralization Assay IC50” value in test [4] worked out at 1.1 pM.

B6: DVD2172 (bispecific antibody)
VH: EVQLVQSGAEVKKPGASVKVSCKASGYTFTTYGVSWVRQAPGQGLEWMGEIYPGNYNTYYNEKFRGRVTMTTDTSTSTAYMELRSLRSDDTAVYYCARWRTSYFSDYGYFDYWGQGTTVTVSSASTKGPEVQLVQSGAEVKKPGSSVKVSCKASGGSFGGYGIGWVRQAPGQGLEWMGGITPFFGFADYAQKFQGRVTITADESTTTAYMELSGLTSDDTAVYYCARDPNEFWNGYYSTHDFDSWGQGTTVTVSS
VL: DVVMTQSPLSLPVTLGQPASISCRSSQSLVHSHGNTYLHWYQQRPGQSPRLLIYTVSNRFSGVPDRFSGSGSGTDFTLKISRVEAEDVGVYYCSQSTHVPYTFGGGTKVEIKRTVAAPEIVLTQSPDFQSVTPKEKVTITCRASQDIGSELHWYQQKPDQPPKLLIKYASHSTSGVPSRFSGSGSGTDFTLTINGLEAEDAGTYYCHQTDSLPYTFGPGTKVDIKR
notes: DVD-Ig; also called DVD2172H; DVD2172L
With B6, in test [1], the equilibrium dissociation constant (Kd) stood at 0.033 nM, the koff was 2.9e-05 s⁻¹ and the kon was 890000 M⁻¹ s⁻¹. In addition, in test [2], the Kd stood at 26 nM, the koff was determined as 0.00017 s⁻¹ and the kon turned out to be 6800 M⁻¹ s⁻¹. For the same molecule, the “N-Terminal VD IL13 Neutralization Assay IC50” value in test [3] was determined as 0.111 nM. In addition, in test [4], the “C-Terminal VD IL17 Neutralization Assay IC50” value is 0.678 nM.
